The text below walks through data of article PMC2610409.

In the experiment the target is RAD18-CFP (human) (UniProt Q9NS91). The experiment is described as follows: FRET or BRET.
UniProt Q9NS91, sequence (Q9NS91 whole entry): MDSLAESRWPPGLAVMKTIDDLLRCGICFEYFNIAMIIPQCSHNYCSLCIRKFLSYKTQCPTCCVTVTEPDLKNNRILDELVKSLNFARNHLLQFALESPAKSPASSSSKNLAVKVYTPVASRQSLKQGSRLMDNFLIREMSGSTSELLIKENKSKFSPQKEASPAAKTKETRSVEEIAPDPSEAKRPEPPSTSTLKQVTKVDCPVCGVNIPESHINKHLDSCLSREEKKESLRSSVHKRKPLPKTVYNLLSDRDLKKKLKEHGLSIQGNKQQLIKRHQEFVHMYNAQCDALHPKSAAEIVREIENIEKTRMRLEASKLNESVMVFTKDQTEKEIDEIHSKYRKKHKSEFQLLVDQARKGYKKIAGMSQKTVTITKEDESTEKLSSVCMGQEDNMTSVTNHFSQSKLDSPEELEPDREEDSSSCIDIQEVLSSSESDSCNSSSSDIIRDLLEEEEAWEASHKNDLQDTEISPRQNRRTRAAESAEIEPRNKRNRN

As to “RAD6A-YFP (from UniProt P49459 1-152) (natural protein)”, the FRET efficiency is 72%.
